In paper PMC8642242 one finds IC50 of neutralization of SARS-CoV-1 (Sino 1-11) pseudovirus data, which are given here for one substance.

The target of the assay is SARS-CoV-1 (Sino 1-11) RBD, His-tagged (SARS-CoV-1).

Turning to WRAIR-2063 (human IgG1) (antibody), the IC50 of neutralization of SARS-CoV-1 (Sino 1-11) pseudovirus worked out at 0.095 µg/mL.
